From doi:10.1101/2021.12.06.470909, “Ubiquitination regulates cytoophidium assembly in Schizosaccharomyces pombe” (bioRxiv, 2021)

Biological target: T1, ubiquitin (S. pombe (endogenous in S. pombe), UniProt P0CG72 1-76)
T1 construct: ubiquitin of S. pombe, the cut product of the ubiquitin precursors; precipitated with an anti-ubiquitin polyclonal antibody; The ubiquitin may be free, in chains or covalently conjugated; source: endogenous, S. pombe lysate
Assay: co-IP; S. pombe extract (Buffer A: 50mM Hepes-KOH pH 7.5, 5mM MgAc, 100mM KAc, 0.1% NP40, 1mM DTT, 0.5mg/ml BSA) precipitated with anti-ubiquitin rabbit polyclonal antibody overnight at 4°C, then A/G magnetic beads; blot with anti-HA (Cts1-flag-3HA, with MG132) or anti-GFP (Cts1-YFP strains; also in mug30Δ and ubr11Δ backgrounds); IP signal normalised over input
Details: partners not purified

T1 sequence (P0CG72 1-76): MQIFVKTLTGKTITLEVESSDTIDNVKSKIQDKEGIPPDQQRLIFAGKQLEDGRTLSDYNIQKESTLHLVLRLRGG

fold reduction of the co-IP signal against Cts1-YFP: 6.2 fold
B1: Cts1-YFP K430R (enzyme, S. pombe, UniProt O42644 1-600, looked up)
chain: MKYVLVSGGVISGIGKGVIASSTGLLLKTLGLKVTSIKIDPYMNIDAGTMSPLEHGEVFVLNDGGEVDLDLGNYERYLNVTLTHDNNITTGKVYSNVIQKERRGDYLGKTVQIVPHVTNEIQDWVERVARIPVDQSGEEPDVCIVELGGTVGDIESAAFVEAMRQFQFRVGHENFVSIHVSLVPVINGEQKTKPTQQAIRDLRSLGITPDLIACRCKQPLEKSVIDKISLFCHVGPEQVLAVHDVSSTYHVPQLLEDKLLEYLKIRFALDKISVSRELALAGENMWSSWKHLTQGYDHLFKKVTIVLVGKYTHLQDSYISVIKALEHSAMRCGRKLDLQWVEASHLEASTNTSDPLSYHKAWHLVCSANGILVPGGFGSRGVEGMIAAAKWARENNTPYLGICLGMQVAVIEFARSVCGIEGAFSEEFDRECENNVVVYMPEIDKDKLGGTMRLGLRPTFFQPNSEWSKLRKLHKMVDEVLERHRHRYEINPAFVSRLEQGGISFIGKDERGERMEIIEKRDHPYFVGVQYHPEYLSKPLKPSPPIFGLVAASAGLLDEFIQSGEEVEWSNFSHFNAESALADMNDSVEVTEEATVVTIS
notes: CTP synthase (Cts1) of Schizosaccharomyces pombe with the point mutation K430R, fused to YFP; source: S. pombe K430R strain in a Cts1-YFP background, in cell lysate
